Measured values as given in US20220288229A1 (priority 2012, published 2022).

Assay: Tolerability observations after IV dosing in the rat PK study
Assay type: in vivo
Settings: rats, 1 mg/kg dose, three rats
Description: For PK studies, a 0.1 mg/mL solution was dosed at 10 mL/kg such that a 1 mg/kg IV bolus dose was introduced by tail vein injection into rats Following compound administration, blood was collected at 0.083 h, 0.25 h, 0.5 h, 1 h, 2 h, 4 h, 8 h, and 24 h post dose into lithium heparin coated vacuum tubes. Tubes were inverted for 5 minutes and then placed on wet ice until centrifuged for 5 minutes at 4° C. at 6000 rpm. Plasma was harvested, frozen at −80° C. and shipped to for bioanalysis on dry ice.

Compound: CCCCN(CCSSC[C@@H]1NC(=O)[C@@H](Cc2ccccc2)NC(=O)[C@H](CC(=O)O)NC(=O)CNC(=O)[C@H](CCCNC(=N)N)NC1=O)C(=O)O[C@@H](C(=O)OC1C[C@@]2(O)[C@@H](OC(=O)c3ccccc3)[C@@H]3[C@]4(OC(C)=O)CO[C@@H]4C[C@H](OC)[C@@]3(C)C(=O)[C@H](OC)C(=C1C)C2(C)C)[C@@H](NC(=O)OC(C)(C)C)c1ccccc1 (some centres unmarked) [BT-568]
- Clinical signs of toxicity post dose: lethargy and labored breathing were observed immediately post dose in all three rats
- Mortality: one of the three animals died
